Read-outs that look alike come from different tables or passages of the source.
Legend:
[1] = target: T1, LDL (apolipoprotein B-100) (Homo sapiens, UniProt P04114)
[2] = target: T1, LDL (apolipoprotein B-100); remark: listed apart in the source

B1: LDL receptor 1-789 (protein)
chain: not shown
**Q.** How did the Kd [1] turn out when B1 was run?
**A.** 0.58 nM

**Q.** And the Kd [2]?
**A.** 7.01 nM
